This note sets out measurements from IntAct's records for PubMed 17923090.

This assay has as its target stat1_human STAT1 (UniProt P42224).

Chain of stat1_human STAT1 (P42224 whole entry): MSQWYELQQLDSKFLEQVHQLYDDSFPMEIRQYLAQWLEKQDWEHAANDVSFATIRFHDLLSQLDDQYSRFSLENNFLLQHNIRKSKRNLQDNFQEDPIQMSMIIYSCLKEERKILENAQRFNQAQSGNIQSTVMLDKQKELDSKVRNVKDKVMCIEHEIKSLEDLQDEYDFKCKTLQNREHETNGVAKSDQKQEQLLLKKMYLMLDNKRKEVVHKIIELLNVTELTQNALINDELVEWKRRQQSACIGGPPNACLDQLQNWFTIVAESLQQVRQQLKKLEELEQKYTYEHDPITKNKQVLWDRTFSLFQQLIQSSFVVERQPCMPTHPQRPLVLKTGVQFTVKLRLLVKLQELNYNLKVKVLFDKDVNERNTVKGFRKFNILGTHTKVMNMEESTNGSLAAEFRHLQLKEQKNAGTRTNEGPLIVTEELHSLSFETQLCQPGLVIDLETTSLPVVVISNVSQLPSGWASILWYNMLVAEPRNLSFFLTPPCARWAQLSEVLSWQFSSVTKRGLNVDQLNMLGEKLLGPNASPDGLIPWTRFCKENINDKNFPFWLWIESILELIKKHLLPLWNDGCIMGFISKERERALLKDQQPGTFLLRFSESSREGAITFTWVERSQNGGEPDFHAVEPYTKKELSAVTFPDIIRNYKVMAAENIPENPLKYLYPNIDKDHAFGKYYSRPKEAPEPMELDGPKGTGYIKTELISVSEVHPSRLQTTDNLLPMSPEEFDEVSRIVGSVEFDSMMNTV

For “Signal transducer and activator of transcription 2 (Homo sapiens), P52630 K384R”, the “effect of a mutation on the interaction” value was “decreasing interaction”. For the substance “Signal transducer and activator of transcription 2 (Homo sapiens), P52630 K390R”, the “effect of a mutation on the interaction” value was “increasing interaction”. The value for “Signal transducer and activator of transcription 2 (Homo sapiens), P52630 K415R” was “increasing interaction”.

Regarding “Signal transducer and activator of transcription 2 (Homo sapiens), P52630 K419R”, the “effect of a mutation on the interaction” value is given as “decreasing interaction”.
